Source: article PMC5068739 (PLoS ONE, 2016)
One block for each compound: values may come before it.

Tests used:
[1] = biological target: T1, AtPYL6 (with TaABI1) (Arabidopsis thaliana, UniProt Q8S8E3); assay: receptor-mediated PP2C inhibition, 4-methylumbelliferyl phosphate fluorescence; format: biochemical; conditions: ligand 0.1 uM unless otherwise noted, Mn2+, pH 7.9, 30 °C
T1 construct: gene PYL6; recombinant from E. coli, Ni-NTA enriched; the partner PP2C is from wheat; with Protein phosphatase 2C ABI1 (Triticum aestivum)
T1 sequence (Q8S8E3 1-215): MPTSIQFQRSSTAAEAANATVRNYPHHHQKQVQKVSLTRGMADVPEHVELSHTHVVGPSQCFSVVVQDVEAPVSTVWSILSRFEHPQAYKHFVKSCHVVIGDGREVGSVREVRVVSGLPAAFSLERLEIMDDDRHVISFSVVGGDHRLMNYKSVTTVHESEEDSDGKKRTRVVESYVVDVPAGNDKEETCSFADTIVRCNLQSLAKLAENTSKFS
T1 sequence (A5A6P8 1-479 partner): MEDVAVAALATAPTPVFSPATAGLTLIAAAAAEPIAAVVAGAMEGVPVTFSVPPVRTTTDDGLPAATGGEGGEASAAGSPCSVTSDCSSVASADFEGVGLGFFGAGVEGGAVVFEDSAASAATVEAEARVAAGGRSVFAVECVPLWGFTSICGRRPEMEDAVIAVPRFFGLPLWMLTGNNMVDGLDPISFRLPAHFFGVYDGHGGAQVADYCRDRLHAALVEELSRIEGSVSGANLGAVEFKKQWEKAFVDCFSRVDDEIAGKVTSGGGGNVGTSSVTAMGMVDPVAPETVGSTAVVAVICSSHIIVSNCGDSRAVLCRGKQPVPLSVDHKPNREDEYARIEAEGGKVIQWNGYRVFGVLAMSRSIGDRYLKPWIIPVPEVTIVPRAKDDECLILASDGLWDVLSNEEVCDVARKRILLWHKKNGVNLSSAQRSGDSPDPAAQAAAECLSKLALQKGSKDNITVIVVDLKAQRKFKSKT

[2] = biological target: T2, Bradi1g37810 (with Bradi2g41950) (Brachypodium distachyon, UniProt I1GXY5); assay: as above; format: biochemical; conditions: ligand 0.1 uM unless otherwise noted, Mn2+, pH 7.9, 30 °C, n = 1 screen
T2 construct: gene LOC100840898; recombinant from E. coli, Ni-NTA enriched; receptor 196 residues; with Protein phosphatase 2C
T2 sequence (I1GXY5 1-196): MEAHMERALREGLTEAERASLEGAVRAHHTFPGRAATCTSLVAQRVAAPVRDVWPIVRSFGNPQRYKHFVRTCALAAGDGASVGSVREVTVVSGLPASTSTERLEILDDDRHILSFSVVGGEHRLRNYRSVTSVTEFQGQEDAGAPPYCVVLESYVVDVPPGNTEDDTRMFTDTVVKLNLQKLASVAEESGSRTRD

[3] = biological target: Bradi2g41950 (B. distachyon)
[4] = biological target: AtABI1 (A. thaliana) (UniProt P49597)
[5] = biological target: TaABI1 (wheat)
[6] = biological target: TaABI1 (wheat); remark: listed apart in the source

Chain of AtABI1 (A. thaliana) (P49597 whole entry): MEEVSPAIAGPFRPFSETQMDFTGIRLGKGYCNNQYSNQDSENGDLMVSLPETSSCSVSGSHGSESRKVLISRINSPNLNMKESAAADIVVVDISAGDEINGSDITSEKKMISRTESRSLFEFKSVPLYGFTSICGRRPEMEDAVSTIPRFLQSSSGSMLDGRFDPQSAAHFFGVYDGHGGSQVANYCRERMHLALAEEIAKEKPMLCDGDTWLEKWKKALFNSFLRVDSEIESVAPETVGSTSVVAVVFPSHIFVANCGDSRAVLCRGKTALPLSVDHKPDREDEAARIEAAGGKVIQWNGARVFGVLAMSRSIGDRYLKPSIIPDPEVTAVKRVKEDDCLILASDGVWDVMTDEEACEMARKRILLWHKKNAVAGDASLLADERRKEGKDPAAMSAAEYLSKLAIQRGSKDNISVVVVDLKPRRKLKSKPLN

Compound: CO[C@]1(/C=C/C(C)=C\C(=O)O)C(C)=CC(=O)CC1(C)C [PBI352]
% inhibition of PP2C [1]: the three A. thaliana receptors against the Ta_ABI1 PP2C were plotted
% inhibition of PP2C [2]: subfamily III receptor Bd1g37810 is similar to that of the subfamily II, Ta_PYL2DS_FL

Bradi2g41950 phosphatase activity with receptor and PBI352 (Figure C in S2 File; n = 1) (% inhibition of PP2C) [3]: 90
Compound: Bradi2g32250 (receptor)

Bradi2g41950 phosphatase activity with receptor and PBI352 (Figure C in S2 File; n = 1) (% inhibition of PP2C) [3]: 90
Compound: Bradi3g09580 (receptor)

PP2C phosphatase activity, receptor to PP2C 10:1, with 0.1 uM PBI352 (Fig 2B) (% decrease in PP2C activity) [4]: 30
PP2C phosphatase activity, receptor to PP2C 10:1, with 0.1 uM PBI354 (Fig 2C) (% decrease in PP2C activity) [4]: 0
PP2C phosphatase activity, receptor to PP2C 10:1, with 0.1 uM PBI352 (Fig 2B) (% decrease in PP2C activity) [5]: 30
PP2C phosphatase activity, receptor to PP2C 10:1, with 0.1 uM PBI354 (Fig 2C) (% decrease in PP2C activity) [5]: 0
TaABI1 phosphatase activity (4-methylumbelliferyl phosphate) with the receptor, on addition of ABA (Figure B in S2 File) (% reduction of phosphatase activity) [6]: 90
Compound: Ta_PYL2DS_FL (receptor)
